Test results from patent publication US9586994B2, “CD44V6-derived peptides for treating breast cancer” (KARLSRUHER INSTITUT FÜR TECHNOLOGIE, priority 2012, dated 2017).

Target: T1, CD44v6 (Homo sapiens, UniProt P16070)
T1 construct: endogenous in cells; host or cells: MCF7; MCF10A
Assay: Peptide blocking of EGF-induced Erk phosphorylation in MCF10A cells (Western blot)
Assay type: cell-based
Conditions: MCF10 cells, serum-starved; peptide 100 ng/ml; EGF 20 ng/ml
Description: 3×10^5 were seeded per well of a 6-well plate and serum-starved for 24 hours. Afterwards the medium inside of each well was reduced to 1 ml and the respective peptide (v6 (both peptides of SEQ ID No.: 2 and 6 were tested), or ctrl peptide) was added at a concentration of 100 ng/ml. The cells then were incubated together with the peptide at 37° C. for 5 mins. Ligand concentration for all peptide blocking experiments was 20 ng/ml.
To assay protein expression via Western blot cells were washed 1× with PBS and afterwards lysed in 2×Laemmli sample buffer (160 mM Tris-HCl pH 6.8, 4% SDS, 16% glycerol, 0.1M DTT, 0.01% bromphenol blue). The sample was sheared through a 26 gauge needle. In succession the lysates were boiled for 5 mins at 99° C. in order to denature the proteins in the sample and then spun down at 10 000 rmp for 1 min Eventually the samples were loaded onto an SDS-PAGE gel.
To test whether CD44v6 acts as a co-receptor in MCF7 or MCF10A cells, a peptide blocking experiment using peptides of SEQ ID NO: 6 was conducted. The cells were serum-starved for 24 h and then pre-incubated with a v6 peptide or an unspecific control peptide. Then, the cells were induced with EGF or HGF as a control. As a read-out for ErbB-activation, the phosphorylation of the Erk-kinase was used.

T1 sequence (P16070 21-742): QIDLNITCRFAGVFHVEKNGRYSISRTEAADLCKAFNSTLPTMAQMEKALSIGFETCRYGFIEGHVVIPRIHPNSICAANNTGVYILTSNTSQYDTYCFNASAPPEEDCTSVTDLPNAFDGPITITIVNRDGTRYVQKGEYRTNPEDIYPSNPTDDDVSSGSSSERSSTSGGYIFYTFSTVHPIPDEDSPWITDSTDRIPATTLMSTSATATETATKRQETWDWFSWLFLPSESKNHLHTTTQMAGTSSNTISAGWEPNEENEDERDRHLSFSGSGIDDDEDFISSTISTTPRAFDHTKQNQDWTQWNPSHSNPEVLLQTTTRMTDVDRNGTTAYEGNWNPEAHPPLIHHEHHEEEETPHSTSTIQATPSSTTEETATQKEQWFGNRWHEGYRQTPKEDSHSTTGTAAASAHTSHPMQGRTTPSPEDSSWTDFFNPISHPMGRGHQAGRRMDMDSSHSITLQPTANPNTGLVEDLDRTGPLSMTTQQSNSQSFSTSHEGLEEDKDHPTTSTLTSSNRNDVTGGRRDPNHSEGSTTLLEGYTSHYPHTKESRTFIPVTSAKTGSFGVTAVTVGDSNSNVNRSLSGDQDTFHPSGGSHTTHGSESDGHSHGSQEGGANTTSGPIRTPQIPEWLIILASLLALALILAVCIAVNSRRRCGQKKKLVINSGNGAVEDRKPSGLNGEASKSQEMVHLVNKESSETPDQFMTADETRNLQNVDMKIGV

KEQWFGNRWHEGYR [SEQ ID NO: 6, human CD44v6 14mer peptide]
EGF-induced activation of the ErbB receptors (Erk phosphorylation): could be blocked
